Laboratory results published in publication PMC10015101.

Columns and labels:
Test in all cases: SEC
[1] = target: RaTG13 soluble spike ectodomain, stabilised (2P, GSAS linker, T4 fibritin trimerization motif) (bat sarbecovirus RaTG13 | bacteriophage T4)
[2] = target: RsSHC014 soluble spike ectodomain, stabilised (2P, GSAS linker, T4 fibritin trimerization motif) (bat sarbecovirus RsSHC014 | bacteriophage T4) (UniProt U5WLK5)
[3] = target: BM48-31 soluble spike ectodomain, stabilised (2P, GSAS linker, T4 fibritin trimerization motif) (bat sarbecovirus BM48-31 | bacteriophage T4)
[4] = target: Pang17 soluble spike ectodomain, stabilised (2P, GSAS linker, T4 fibritin trimerization motif) (pangolin sarbecovirus pang17 | bacteriophage T4)
[5] = target: WIV1 soluble spike ectodomain, stabilised (2P, GSAS linker, T4 fibritin trimerization motif) (bat sarbecovirus WIV1 | bacteriophage T4) (UniProt U5WI05)
[6] = target: Yun11 soluble spike ectodomain, stabilised (2P, GSAS linker, T4 fibritin trimerization motif) (sarbecovirus Yun11 | bacteriophage T4)
[7] = target: Rs4081 soluble spike ectodomain, stabilised (2P, GSAS linker, T4 fibritin trimerization motif) (bat sarbecovirus RS4081 | bacteriophage T4)
[8] = target: BtKY72 soluble spike ectodomain, stabilised (2P, GSAS linker, T4 fibritin trimerization motif) (bat sarbecovirus BtKY72 | bacteriophage T4)
[9] = target: RmYN02 soluble spike ectodomain, stabilised (2P, GSAS linker, T4 fibritin trimerization motif) (bat sarbecovirus RmYN02 | bacteriophage T4)

RaTG13 soluble spike ectodomain, stabilised (2P, GSAS linker, T4 fibritin trimerization motif) (domain or fragment)
stoichiometry N [1]: 3

RsSHC014 soluble spike ectodomain, stabilised (2P, GSAS linker, T4 fibritin trimerization motif) (from UniProt U5WLK5 1-1191) (domain or fragment)
stoichiometry N [2]: 3

BM48-31 soluble spike ectodomain, stabilised (2P, GSAS linker, T4 fibritin trimerization motif) (domain or fragment)
stoichiometry N [3]: 3

Pang17 soluble spike ectodomain, stabilised (2P, GSAS linker, T4 fibritin trimerization motif) (domain or fragment)
stoichiometry N [4]: 3

WIV1 soluble spike ectodomain, stabilised (2P, GSAS linker, T4 fibritin trimerization motif) (from UniProt U5WI05 1-1191) (domain or fragment)
stoichiometry N [5]: 3

Yun11 soluble spike ectodomain, stabilised (2P, GSAS linker, T4 fibritin trimerization motif) (domain or fragment)
stoichiometry N [6]: 3

Rs4081 soluble spike ectodomain, stabilised (2P, GSAS linker, T4 fibritin trimerization motif) (domain or fragment)
stoichiometry N [7]: 3

BtKY72 soluble spike ectodomain, stabilised (2P, GSAS linker, T4 fibritin trimerization motif) (domain or fragment)
stoichiometry N [8]: 3

RmYN02 soluble spike ectodomain, stabilised (2P, GSAS linker, T4 fibritin trimerization motif) (domain or fragment)
stoichiometry N [9]: 3
